Test results published in PMC8452638.
pIC50: −log10 of the molar value. Blank lines part the entries; values can stand above or below the substance they belong to.

Experiments:
RAD-51 (nematode) [1] = molecular target: RAD-51 (nematode) (UniProt Q95Q25)
RAD-51 (nematode) [2] = test: stopped-flow Cy3 fluorescence, competitor challenge; conditions: Cy3 in backbone after nt 21; SF buffer: 50 mM Tris-HCl pH 7.5, 5 mM MgCl2, 50 mM NaCl, 2 mM ATP or ADP or no nucleotide; EMSA 25 C with 0.125% glutaraldehyde; BLI room temperature with …
RAD-51 (nematode) [3] = test: stopped-flow Cy3 fluorescence; conditions: SF buffer: 50 mM Tris-HCl pH 7.5, 5 mM MgCl2, 50 mM NaCl, 2 mM ATP or ADP or no nucleotide; EMSA 25 C with 0.125% glutaraldehyde; BLI room temperature with …

- stopped-flow, Cy3-43mer ssDNA (15 nM), RAD-51 1 uM pre-mixed with increasing RFS-1/RIP-1 (up to 1 uM), no nucleotide: reduction of the fluorescence increase due to RAD-51 binding to ssDNA (RAD-51 (nematode) [1]): 3 fold
Substance: RFS-1/RIP-1 complex (from UniProt P34348 1-245)

Substance: TTTTTTTTTTTTTTTTTTTTTTTTTTTTTTTTTTTTTTTTTTT [(Int21)-Cy3-43mer]
- K half (RAD-51 (nematode) [2]): 26 nM

Substance: TTTTTTTTTTTTTTTTTTTTTTTTTTTTTTTTTTTTTTTTTTT [Cy3-43mer (label position not stated)]
- pIC50 (RAD-51 (nematode) [3]): 6.70
